Measured values taken from US20200283478A1 (Genentech, published 2020).
Ends that are not written are not given here. * marks the point of attachment. Pentanoyl = CCCCC(=O)*

B1: Compound 159 (peptide)
peptide: Pentanoyl-WNLKRIGLLR-NH2
SMILES: CCCCC(=O)N[C@@H](Cc1c[nH]c2ccccc12)C(=O)N[C@@H](CC(N)=O)C(=O)N[C@@H](CC(C)C)C(=O)N[C@@H](CCCCN)C(=O)N[C@@H](CCCNC(=N)N)C(=O)N[C@H](C(=O)NCC(=O)N[C@@H](CC(C)C)C(=O)N[C@@H](CC(C)C)C(=O)N[C@@H](CCCNC(=N)N)C(N)=O)[C@@H](C)CC

The binders below were run against T1, His-tagged PCSK9Δhelix (human, UniProt Q8NBP7 31-152; Q8NBP7 168-692) (assay: TR-FRET competition; His-PCSK9Δhelix, competitor Ab20).
T1 construct: Construct M1-Q692 with engineered TEV site, cut by TEV protease; new N-terminus of the catalytic domain is S-A168; also called His-PCSK9Δhelix
T1 sequence (Q8NBP7 31-152, stated change not applied, chain 1 of 2): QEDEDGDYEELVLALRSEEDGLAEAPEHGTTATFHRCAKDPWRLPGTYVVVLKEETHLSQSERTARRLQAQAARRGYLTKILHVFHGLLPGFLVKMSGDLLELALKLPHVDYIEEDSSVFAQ
T1 sequence (Q8NBP7 other isoform, or with tags, fused parts or gaps mutant, chain 2 of 2): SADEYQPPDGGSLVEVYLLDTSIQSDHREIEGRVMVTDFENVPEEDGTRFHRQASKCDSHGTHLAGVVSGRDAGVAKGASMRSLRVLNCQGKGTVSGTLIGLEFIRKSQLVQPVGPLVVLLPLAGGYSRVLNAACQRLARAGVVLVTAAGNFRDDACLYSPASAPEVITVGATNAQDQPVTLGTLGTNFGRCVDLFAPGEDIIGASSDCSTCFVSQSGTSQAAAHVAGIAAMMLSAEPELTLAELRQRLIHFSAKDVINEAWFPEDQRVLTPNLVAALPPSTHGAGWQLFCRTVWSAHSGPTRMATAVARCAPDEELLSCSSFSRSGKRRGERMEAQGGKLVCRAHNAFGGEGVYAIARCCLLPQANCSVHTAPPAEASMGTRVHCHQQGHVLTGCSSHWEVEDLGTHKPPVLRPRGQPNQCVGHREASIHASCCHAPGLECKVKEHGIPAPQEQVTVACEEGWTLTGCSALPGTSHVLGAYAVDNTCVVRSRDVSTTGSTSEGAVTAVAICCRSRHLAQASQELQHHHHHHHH

| Binder | IC50 [µM] |
| --- | --- |
| Ac-SGDLMPWNLVRIGLLR-NH2 [Compound 122] | 5.6 |
| {n‑PrC(O)}-WNLVRIGLLR-NH2 [Compound 123] | 18 |
| B1 | 6.6 |
| WNLVRIGLTR (also: further groups not given here, Structure printed only as a drawing) [Compound 161] | 5 |
| WNLVRIGLTR (also: further groups not given here, Structure printed only as a drawing) [Compound 162] | 37 |
| WNLVRIGLTR (also: further groups not given here, Structure printed only as a drawing) [Compound 163] | 37 |
| WNLVRIGLTR (also: further groups not given here, Structure printed only as a drawing) [Compound 164] | 12 |
| WNLVRIGLTR (also: further groups not given here, Structure printed only as a drawing) [Compound 165] | 18 |
| WNLVRIGLTR (also: further groups not given here, Structure printed only as a drawing) [Compound 166] | 5.9 |
| WNLVRIGLTR (also: further groups not given here, Structure printed only as a drawing) [Compound 167] | 43 |
| WNLVRIGLTR (also: further groups not given here, Structure printed only as a drawing) [Compound 168] | 7.8 |
| WNLVRIGLTR (also: further groups not given here, Structure printed only as a drawing) [Compound 169] | 6.8 |
| WNLVRIGLTR (also: further groups not given here, Structure printed only as a drawing) [Compound 170] | 3.1 |
| WNLVRIGLTR (also: further groups not given here, Structure printed only as a drawing) [Compound 171] | 7.7 |
| WNLVRIGLTR (also: further groups not given here, Structure printed only as a drawing) [Compound 172] | 8.5 |
| WNLVRIGLTR (also: further groups not given here, Structure printed only as a drawing) [Compound 173] | 9.8 |
| Pentanoyl-WNLVRIGLTR [Compound 176] | 18 |

These binders were tested against T2, His-tagged, full-length PCSK9 (human, UniProt Q8NBP7 31-692) (assay: TR-FRET competition; His-PCSK9, competitor EGF(A)-Fc).
T2 construct: The secreted protein is autocleaved into a prodomain and a catalytic/Cys-rich chain that starts at S153; also called His-PCSK9
T2 sequence (Q8NBP7 other isoform, or with tags, fused parts or gaps limits assumed): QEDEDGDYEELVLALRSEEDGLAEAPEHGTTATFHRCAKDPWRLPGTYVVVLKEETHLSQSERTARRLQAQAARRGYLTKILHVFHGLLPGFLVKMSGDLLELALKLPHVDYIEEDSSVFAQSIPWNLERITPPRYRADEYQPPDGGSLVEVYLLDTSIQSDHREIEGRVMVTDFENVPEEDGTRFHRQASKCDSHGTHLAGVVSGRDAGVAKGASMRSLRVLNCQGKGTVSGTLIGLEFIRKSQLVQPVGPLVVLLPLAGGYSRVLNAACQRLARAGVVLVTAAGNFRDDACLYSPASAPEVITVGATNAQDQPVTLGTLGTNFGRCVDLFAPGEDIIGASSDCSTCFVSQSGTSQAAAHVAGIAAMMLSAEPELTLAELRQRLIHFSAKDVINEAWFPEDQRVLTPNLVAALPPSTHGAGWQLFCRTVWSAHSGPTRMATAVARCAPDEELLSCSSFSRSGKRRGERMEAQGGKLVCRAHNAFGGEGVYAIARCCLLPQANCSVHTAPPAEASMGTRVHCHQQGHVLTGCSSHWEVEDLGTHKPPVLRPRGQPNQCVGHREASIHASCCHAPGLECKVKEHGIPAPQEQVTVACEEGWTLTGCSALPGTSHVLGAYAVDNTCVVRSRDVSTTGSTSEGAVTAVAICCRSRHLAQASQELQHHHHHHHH

| Binder | IC50 [µM] |
| --- | --- |
| {n‑PrC(O)}-WNLVRIGLLR-NH2 [Compound 123] | ≥ 50 |
| B1 | ≥ 50 |
| WNLVRIGLTR (also: further groups not given here, Structure printed only as a drawing) [Compound 161] | ≥ 50 |
| WNLVRIGLTR (also: further groups not given here, Structure printed only as a drawing) [Compound 162] | ≥ 50 |
| WNLVRIGLTR (also: further groups not given here, Structure printed only as a drawing) [Compound 163] | ≥ 50 |
| WNLVRIGLTR (also: further groups not given here, Structure printed only as a drawing) [Compound 164] | ≥ 50 |
| WNLVRIGLTR (also: further groups not given here, Structure printed only as a drawing) [Compound 165] | ≥ 50 |
| WNLVRIGLTR (also: further groups not given here, Structure printed only as a drawing) [Compound 166] | ≥ 50 |
| WNLVRIGLTR (also: further groups not given here, Structure printed only as a drawing) [Compound 167] | ≥ 50 |
| WNLVRIGLTR (also: further groups not given here, Structure printed only as a drawing) [Compound 168] | ≥ 50 |
| WNLVRIGLTR (also: further groups not given here, Structure printed only as a drawing) [Compound 169] | ≥ 50 |
| WNLVRIGLTR (also: further groups not given here, Structure printed only as a drawing) [Compound 170] | ≥ 50 |
| WNLVRIGLTR (also: further groups not given here, Structure printed only as a drawing) [Compound 171] | ≥ 50 |
| WNLVRIGLTR (also: further groups not given here, Structure printed only as a drawing) [Compound 172] | ≥ 50 |
| WNLVRIGLTR (also: further groups not given here, Structure printed only as a drawing) [Compound 173] | ≥ 50 |
| Pentanoyl-WNLVRIGLTR [Compound 176] | ≥ 50 |
